Measurements as given in patent US9527913B2, “Humanized pan-HER antibody compositions” (Symphogen A/S, priority 2012, dated 2016).
Where two headings read alike, the source gives them in different places. Each block holds one molecule with its values, some of them ahead of it.

How the values were obtained:
[1] = test system: patient-derived xenograft models of pancreatic cancer; conditions: cited from earlier work
MDA-MB-175-VII cells = experiment: WST-1 metabolic activity, parental and pertuzumab resistant cells (Example 5); format: cell-based, human; conditions: 96 hours
Method: Cells were split once or twice a week in order to keep cells in exponential growth. The level of resistance was tested every month in a WST-1 viability assay as described in Example 2, until a pool of resistant cells was established.
Metabolic activity was determined after 96 hours incubation using a similar WST-1 assay as described in Example 2.

cynomolgus HER3 = experiment: Kinetic binding analysis by surface plasmon resonance (ProteOn XPR36, IgG capture); conditions: Cynomolgus antigen
Method: (§1) Kinetic binding analysis of the purified humanized variants was performed on a ProteOn™ XPR36 biosensor (BioRad, USA) employing an IgG capture assay as described by Canziani et al. (Anal. Biochem. (2004) 325:301-307) that allows for measurement of antibody affinities of whole IgG molecules against soluble antigen under monovalent conditions. Briefly, approximately 5000 resonance units (RU) of a monoclonal mouse anti-human IgG Fc antibody (GE Healthcare, Denmark) was conjugated to a GLC chip surface (BioRad, USA) according to the manufacturer's instructions, followed by capture of individual antibodies of the invention or a negative control on the anti-Fc sensor surface. […] Next, 250 μl monovalent antigen (Sino Biologicals) was injected at a flow rate of 50 μl/min in serial threefold dilutions from 100 nM stock to generate response curves. The chip surface was regenerated between cycles by stripping the captured antibody/antigen complexes off the surface with a 10-second injection of 3 M MgCl2 (GE Healthcare, Denmark) repeated three times. Finally, binding responses were fitted to a Langmuir 1:1 binding model for calculation of the on-rate (kon or ka), off-rate (koff or kd) and affinity (KD) constants using double referencing.

human HER3 = biological target: T1, human HER3 (Homo sapiens, UniProt P21860); experiment: as above; conditions: Human antigen
T1 construct: against soluble antigen under monovalent conditions; purchased Sino Biologicals
Method: as §1

[2] = test system: A431NS, H358, FaDu, OE19, BT474, MDA-MB-175 VII, MCF-7, N87, HN5, MFE-280 cancer cell lines; experiment: Viability assay (WST-1) of humanized variants with partner antibody and of six-antibody mixtures; format: cell-based, human; conditions: two cell lines per variant, 96 hours
Method: Each humanized variant was tested in two cell lines and compared to the parental mixture of two chimeric antibodies and to a negative control antibody. […] In addition, a combination of six humanized variants (11294, 11302, 11249, 11145, 10738 and 11052; Humanized Pan-HER) was tested in a number of cell lines and compared to the combination of the six chimeric antibodies (1277, 1565, 4384, 4517, 5038 and 5082; Chimeric Pan-HER). The cell lines used, N87 gastric, FaDu head and neck, A431NS epidermoid, OE19 esophageal, HN5 head and neck, MDA-MB-175 VII breast and MFE-280 endometrial cancer, were selected on the basis of their previously determined dependency on the HER family receptors.
Prior to performing the viability assay the appropriate antibodies and antibody mixtures were diluted to a final total antibody concentration of 100 μg/ml in appropriate media supplemented with 0.5-2% FBS and 1% P/S (penicillin/streptomycin), yielding a final total antibody concentration of 50 μg/ml in the well containing the highest antibody concentration. A threefold serial dilution of the antibodies was then performed in a 384-well plate, followed by addition of relevant numbers of cells to the experimental wells. The MCF-7 cells were also stimulated with 1 nM heregulin beta. The plates were incubated for 4 days in a humidified incubator at 37° C. WST-1 reagent (Roche Applied Science, Mannheim, Germany) was added to the plates and the plates were incubated for 1-3 h at 37° C. Plates were transferred to an orbital plate shaker for one h and the absorbance was measured at 450 and 620 nm (reference wavelength) using an ELISA reader. The percentage of metabolically active cells (MAC) is calculated as a percentage of the untreated control as follows: […]

[3] = test system: EGFR, HER2 and HER3 from humans, cynomolgus monkeys and mice, human and murine HER4; experiment: Cross-reactivity ELISA with coated antigens; format: binding, mouse; conditions: OD at 450 nm, 40 nM antibody, compared to chimeric parent
Method: Antibody-antigen binding was measured by ELISA with coated antigens. Human antigens were obtained from Sino Biologicals. All other antigens were produced in-house by transient expression in CHO or HEK293 cells. Chimeric and humanized antibodies, as well as an isotype control antibody, were incubated with the coated antigens at different concentrations. After wash, bound antibodies were detected by HRP-(horse radish peroxidase)-conjugated secondary antibodies. The OD signal from 40 nM antibody, measured at 450 nm using an ELISA reader, was scored from negative (−; OD<0.1) to strongly positive (+++; OD>2.5).

cynomolgus EGFR = experiment: Kinetic binding analysis by surface plasmon resonance (ProteOn XPR36, IgG capture); conditions: Cynomolgus antigen
Method: as §1

[4] = test system: EGFR, HER2 and HER3 in H292 cells; experiment: Western blot of EGFR, HER2 and HER3 in whole cell lysates (Example 6); format: cell-based, human; conditions: H292, 20 μg/ml, 48 hour
[5] = test system: EGFR, HER2 and HER3 in OVCAR-8 cells; experiment: as above; format: cell-based, human; conditions: OVCAR-8, 20 μg/ml, 48 hour

ka (cynomolgus HER3): 470000 M⁻¹ s⁻¹
kd (cynomolgus HER3): 0.00034 s⁻¹
ka (human HER3): 190000 M⁻¹ s⁻¹
kd (human HER3): 0.0002 s⁻¹
B1: antibody 10810: humanized anti-HER3 antibody from chimeric parent 5038; HC SEQ ID NO: 56, LC SEQ ID NO: 57 (antibody, V domains shown)
VH: QVQLQESGPGLVKPSQTLSLTCTVSGYSITSGFYWTWIRQHPGNGLEWIGFISYSGSNNYNPSLKNRVTISVDTSKNQFSLKLSSVTAADTATYYCARGGGYYGNLFDYWGQGTLVTVSS
VL: DIQMTQSPSSLSASVGDRVTITCRPSQDISNYVNWFQQKPGKAPKLLIFHTSRLHSGVPSRFSGSGSGTDFTLTISSLQPEDIATYYCQQGITLPWTFGQGTKVEIK
anti-proliferative effect in combination with partner antibody, compared to mixture of the two chimeric parent antibodies [2]: highly similar anti-proliferative effects
cross-reactivity pattern with HER family antigens [3]: binding to the same human and cynomolgus antigen combined with lack of binding to the mouse antigen or to other EGFR family receptors

ka (cynomolgus HER3): 1.3e+06 M⁻¹ s⁻¹
kd (cynomolgus HER3): 0.00026 s⁻¹
ka (human HER3): 870000 M⁻¹ s⁻¹
kd (human HER3): 0.00016 s⁻¹
B2: antibody 11052: humanized anti-HER3 antibody from chimeric parent 5082; HC SEQ ID NO: 60, LC SEQ ID NO: 61 (antibody, V domains shown)
VH: QVQLQESGPGLVKPSQTLSLTCTVSGYSITSAYYWNWIRQFPGKGVEWMGYIGYSGRNTYNPSLKNRVTISRDTSKNQFSLKLSSVTAADTAVYYCSREGDYGYSDYWGQGTLVTVSS
VL: DIQMTQSPSSLSASVGDRVTVTCRASQDINNYLNWYQQKPGKAVKLLIYYTSRLQSGVPSRFSGSGSGTDYTLTISSLQPEDFATYFCQQSETLPWTFGQGTKLEIK
anti-proliferative effect in combination with partner antibody, compared to mixture of the two chimeric parent antibodies [2]: highly similar anti-proliferative effects
cross-reactivity pattern with HER family antigens [3]: binding to the same human and cynomolgus antigen combined with lack of binding to the mouse antigen or to other EGFR family receptors

ka (cynomolgus EGFR): 580000 M⁻¹ s⁻¹
kd (cynomolgus EGFR): 0.016 s⁻¹
B6: antibody 1565: chimeric parent anti-EGFR antibody disclosed in WO 2012/059857; VH SEQ ID NO: 19, light chain SEQ ID NO: 21 (antibody)
VH: RAEVQLQQSGTELVKPGASVILSCKASGYTFTSYWMQWVKQRPGQGLEWIGNINPSNGGTSFNEEFKSRATLTVDKSSSTAYMQLSSLTSEDSAVYYCARDGGLYDGYYFDFWGQGTTLTVS
light: LANIVMTQSHKFMSTLIGARVSITCKASQDVDTAVAWYQQKPGQSPKLLIYWASTRHTGVPDRFTGSGSGTDFSLTVSNVQSEDLTDYFCQQYSSYPLTFGAGTKLELKRTVAAPSVFIFPPSDEQLKSGTASVVCLLNNFYPREAKVQWKVDNALQSGNSQESVTEQDSKDSTYSLSSTLTLSKADYEKHKVYACEVTHQGLSSPVTKSFNRGEC
EGFR, HER2 and HER3 levels in whole cell lysates [4]: HER2 upregulation

The remaining lines, values behind:

Molecule: C#Cc1cccc(Nc2ncnc3cc(OCCOC)c(OCCOC)cc23)c1 [Erlotinib]
Erlotinib resistant ([1]; model ST191): Yes
Erlotinib resistant ([1]; model ST334): Yes
Erlotinib resistant ([1]; model ST383): Yes
Erlotinib resistant ([1]; model ST385): Yes
Erlotinib resistant ([1]; model STS021): No
Erlotinib resistant ([1]; model STS058): Yes
Erlotinib resistant ([1]; model STS059): Yes

Molecule: pertuzumab
metabolic activity (MDA-MB-175-VII cells; parental MDA-MB-175-VII cells): reduced
metabolic activity (MDA-MB-175-VII cells; pertuzumab resistant MDA-MB-175-VII cells): unaltered

B3: antibody 1277: chimeric parent anti-EGFR antibody disclosed in WO 2012/059857; VH SEQ ID NO: 15, light chain SEQ ID NO: 17 (antibody)
VH: RAEVQLVESGGGLVKPGESLKLSCAASGFAFSYSDMSWVRQTPEKRLEWVAYMSSAGDVTFYSDTVKGRFTISRDNAKNTLYLQVSSLKSEDTAIYYCVRHRDVAMDYWGQGTSVTVS
light: LADVVMTQTPLSLPVSLGDQASISCRSSQSLVHSNGNTYLHWYLQKPGQSPKLLIYKVSNRFSGVPDRFSGSGSGTDFTLKISRVEAEDLGVYFCSQSTHVPTFGGGTKLEIKRTVAAPSVFIFPPSDEQLKSGTASVVCLLNNFYPREAKVQWKVDNALQSGNSQESVTEQDSKDSTYSLSSTLTLSKADYEKHKVYACEVTHQGLSSPVTKSFNRGEC
ka (cynomolgus EGFR): 660000 M⁻¹ s⁻¹
kd (cynomolgus EGFR): 0.00039 s⁻¹
EGFR, HER2 and HER3 levels in whole cell lysates [4]: HER2 upregulation

B4: MM-121: anti-HER3 treatment lane in the OVCAR-8 Western blot (antibody, chains of the INN, looked up)
heavy: EVQLLESGGGLVQPGGSLRLSCAASGFTFSHYVMAWVRQAPGKGLEWVSSISSSGGWTLYADSVKGRFTISRDNSKNTLYLQMNSLRAEDTAVYYCTRGLKMATIFDYWGQGTLVTVSSASTKGPSVFPLAPCSRSTSESTAALGCLVKDYFPEPVTVSWNSGALTSGVHTFPAVLQSSGLYSLSSVVTVPSSNFGTQTYTCNVDHKPSNTKVDKTVERKCCVECPPCPAPPVAGPSVFLFPPKPKDTLMISRTPEVTCVVVDVSHEDPEVQFNWYVDGVEVHNAKTKPREEQFNSTFRVVSVLTVVHQDWLNGKEYKCKVSNKGLPAPIEKTISKTKGQPREPQVYTLPPSREEMTKNQVSLTCLVKGFYPSDIAVEWESNGQPENNYKTTPPMLDSDGSFFLYSKLTVDKSRWQQGNVFSCSVMHEALHNHYTQKSLSLSPG
light: QSALTQPASVSGSPGQSITISCTGTSSDVGSYNVVSWYQQHPGKAPKLIIYEVSQRPSGVSNRFSGSKSGNTASLTISGLQTEDEADYYCCSYAGSSIFVIFGGGTKVTVLGQPKAAPSVTLFPPSSEELQANKATLVCLVSDFYPGAVTVAWKADGSPVKVGVETTKPSKQSNNKYAASSYLSLTPEQWKSHRSYSCRVTHEGSTVEKTVAPAECS
EGFR, HER2 and HER3 levels in whole cell lysates [5]: HER2 up-regulation

B5: antibody 5082: chimeric parent anti-HER3 antibody disclosed in WO 2012/059857; VH SEQ ID NO: 35, light chain SEQ ID NO: 37 (antibody)
VH: RAEVQLKESGPGLVKPSQSLSLTCSVTGYSITSAYYWNWIRQFPGNKVEWMGYIGYDGRNTYNPSLKNRISITRDTSKNQFFLKLNSLTTEDTATYYCSREGDYGYSDYWGQGTTLTVS
light: LADIVMTQATSSLSASLGDRVTVSCRASQDINNYLNWYQQKPDGTVKLLIYYTSRLQSGVPSRFSGSGSGIDYSLTISNLEQEDFVTYFCQQSETLPWTFGGGTKLELKRTVAAPSVFIFPPSDEQLKSGTASVVCLLNNFYPREAKVQWKVDNALQSGNSQESVTEQDSKDSTYSLSSTLTLSKADYEKHKVYACEVTHQGLSSPVTKSFNRGEC
ka (cynomolgus HER3): 1.7e+06 M⁻¹ s⁻¹
kd (cynomolgus HER3): 0.00016 s⁻¹
ka (human HER3): 910000 M⁻¹ s⁻¹
kd (human HER3): 7.3e-05 s⁻¹
EGFR, HER2 and HER3 levels in whole cell lysates [5]: HER2 up-regulation
